Test results taken from paper PMC3842841, “VacA, the vacuolating cytotoxin of Helicobacter pylori, binds to multimerin 1 on human platelets” (Thrombosis Journal, 2013).

Molecular target: T1, VacA, the vacuolating cytotoxin of Helicobacter pylori (Helicobacter pylori ATCC49503, UniProt Q48245 34-854)
T1 sequence: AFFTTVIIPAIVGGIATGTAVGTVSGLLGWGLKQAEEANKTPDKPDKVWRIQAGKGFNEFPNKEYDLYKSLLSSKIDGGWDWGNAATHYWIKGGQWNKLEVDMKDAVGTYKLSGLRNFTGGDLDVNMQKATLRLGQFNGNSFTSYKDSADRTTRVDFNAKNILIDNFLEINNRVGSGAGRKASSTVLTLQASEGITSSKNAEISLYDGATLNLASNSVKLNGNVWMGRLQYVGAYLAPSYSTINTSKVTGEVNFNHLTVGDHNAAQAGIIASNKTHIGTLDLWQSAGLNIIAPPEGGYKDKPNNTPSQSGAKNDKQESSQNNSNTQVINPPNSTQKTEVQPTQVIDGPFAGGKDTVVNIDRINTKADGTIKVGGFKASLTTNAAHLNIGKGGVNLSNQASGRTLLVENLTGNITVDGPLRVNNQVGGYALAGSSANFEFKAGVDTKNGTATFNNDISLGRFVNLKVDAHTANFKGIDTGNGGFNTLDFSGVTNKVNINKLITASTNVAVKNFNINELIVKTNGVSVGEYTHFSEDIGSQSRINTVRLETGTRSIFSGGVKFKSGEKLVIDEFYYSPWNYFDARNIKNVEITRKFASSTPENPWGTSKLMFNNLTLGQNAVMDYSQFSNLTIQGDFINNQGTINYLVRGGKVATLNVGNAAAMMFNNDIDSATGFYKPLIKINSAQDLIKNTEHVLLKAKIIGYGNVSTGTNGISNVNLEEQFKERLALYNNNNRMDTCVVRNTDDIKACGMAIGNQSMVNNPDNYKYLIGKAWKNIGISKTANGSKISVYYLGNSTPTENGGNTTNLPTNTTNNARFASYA
Test: SPR; BIAcore X, 25°C; GST-MMRN1 amine-coupled to a CM5 chip; VacA in PBS with 1 mM Ca++ perfused at 20 μL/min; control surface subtracted
Details: both partners purified

B1: Glutathione S-transferase (GST)-fusion protein of multimerin 1 (291a.a. ~ 391a.a.) (domain or fragment)
chain: IHTNQAESHTAVGRGVAEQQQQQGCGDPEVMQKMTDQVNYQAMKLTLLQKKIDNISLTVNDVRNTYSSLEGKVSEDKSREFQSLLKGLKSKSINVLIRDIV
notes: multimerin 1 (MMRN1), residues 291-391; also called GST-MMRN1; GST-fusion protein of partial MMRN1 (291aa-391aa); source: bought: Abnova Corporation
Kd: 33 nM
